According to the supplement of paper PMC11246515:
± gives the standard deviation of the averaged measurements.

Test: total protein half-life in vivo (active degradation + dilution); higher = more stable protein
[1] = E. coli NCM3722 delta-clpP delta-lon delta-hslV, growth: N-lim chemostat, doubling time 6 h
[2] = wild type E. coli NCM3722, growth: C-lim chemostat, doubling time 6 h
[3] = wild type E. coli NCM3722, growth: C-lim chemostat, doubling time 12 h
[4] = E. coli NCM3722 delta-clpP, growth: N-lim chemostat, doubling time 6 h
[5] = E. coli NCM3722 delta-hslV, growth: N-lim chemostat, doubling time 6 h
[6] = E. coli NCM3722 delta-lon, growth: N-lim chemostat, doubling time 6 h
[7] = E. coli NCM3722 delta-smpB, growth: N-lim chemostat, doubling time 6 h
[8] = wild type E. coli NCM3722, growth: N-lim chemostat, doubling time 6 h
[9] = wild type E. coli NCM3722, growth: N-lim chemostat, doubling time 12 h
[10] = wild type E. coli NCM3722, growth: P-lim chemostat, doubling time 6 h
[11] = wild type E. coli NCM3722, growth: P-lim chemostat, doubling time 12 h
[12] = wild type E. coli NCM3722, growth: C-lim chemostat, doubling time 3 h

Sequence	total protein half-life in vivo [1] [h]	total protein half-life in vivo [2] [h]	total protein half-life in vivo [3] [h]	total protein half-life in vivo [4] [h]	total protein half-life in vivo [5] [h]	total protein half-life in vivo [6] [h]	total protein half-life in vivo [7] [h]	total protein half-life in vivo [8] [h]	total protein half-life in vivo [9] [h]	total protein half-life in vivo [10] [h]	total protein half-life in vivo [11] [h]	total protein half-life in vivo [12] [h]
MLVSCAMRLHSGVFPDYAEKLPQEEKMEKEDSFPQRVWQIVAAIPEGYVTTYGDVAKLAGSPRAARQVGGVLKRLPEGSTLPWHRVVNRHGTISLTGPDLQRQRQALLAEGVMVSGSGQIDLQRYRWNY [P0AFP2]	5.49 ± 0.093	4.04	3.96	–	–	–	–	–	–	–	–	–
MLVWLAEHLVKYYSGFNVFSYLTFRAIVSLLTALFISLWMGPRMIAHLQKLSFGQVVRNDGPESHFSKRGTPTMGGIMILTAIVISVLLWAYPSNPYVWCVLVVLVGYGVIGFVDDYRKVVRKDTKGLIARWKYFWMSVIALGVAFALYLAGKDTPATQLVVPFFKDVMPQLGLFYILLAYFVIVGTGNAVNLTDGLDGLAIMPTVFVAGGFALVAWATGNMNFASYLHIPYLRHAGELVIVCTAIVGAGLGFLWFNTYPAQVFMGDVGSLALGGALGIIAVLLRQEFLLVIMGGVFVVETLSVILQVGSFKLRGQRIFRMAPIHHHYELKGWPEPRVIVRFWIISLMLVLIGLATLKVR [P0A6W3]	6.14	–	12.3 ± 0.13	5.83	5.23	5.13 ± 0.073	7.03	6.35 ± 0.4	13.1	6.06	11.1 ± 0.92	–
MLWGFVFVSFISKELALGQSEYISWVKCTSWLSNFVNLRGLRQPDGRPLYEYHATNDEYTQLTQLLRAVGQSQSNICNRDFAACFVLFCSEWYRRDYERQCGWTWDPIYKKIGISFTATELGTIVPKGMEDYWLRPIRFYESERRNFLGTLFSEGGLPFRLLKESDSRFLAVFSRILGQYEQAKQSGFSALSLARAVIEKSALPTVFSEDTSVELISHMADNLNSLVLTHNLINHKEPVQQLEKVHPTWRSEFPIPLDDETGTHFLNGLLCAASVEAKPRLQKNKSTRCQFYWSEKHPDELRVIVSLPDEVSFPVTSEPSTTRFELAICEDGEEVSGLGPAYASLENRQATVRLRKSEVRFGRQNPSAGLSLVARAGGMIVGSIKLDDSEIAIGEVPLTFIVDADQWLLQGQASCSVRSSDVLIVLPRDNSNVAGFDGQSRAVNVLGLKALPVKGCQDVTVTANETYRIRTGREQISIGRFALNGKRASWVCHPDETFIGVPKVISTLPDIQSIDVTRYTC	–	–	–	–	–	–	–	5.44	–	–	–	–
MLYDKSLERDNCGFGLIAHIEGEPSHKVVRTAIHALARMQHRGAILADGKTGDGCGLLLQKPDRFFRIVAQERGWRLAKNYAVGMLFLNKDPELAAAARRIVEEELQRETLSIVGWRDVPTNEGVLGEIALSSLPRIEQIFVNAPAGWRPRDMERRLFIARRRIEKRLEADKDFYVCSLSNLVNIYKGLCMPTDLPRFYLDLADLRLESAICLFHQRFSTNTVPRWPLAQPFRYLAHNGEINTITGNRQWARARTYKFQTPLIPDLHDAAPFVNETGSDSSSMDNMLELLLAGGMDIIRAMRLLVPPAWQNNPDMDPELRAFFDFNSMHMEPWDGPAGIVMSDGRFAACNLDRNGLRPARYVITKDKLITCASEVGIWDYQPDEVVEKGRVGPGELMVIDTRSGRILHSAETDDDLKSRHPYKEWMEKNVRRLVPFEDLPDEEVGSRELDDDTLASYQKQFNYSAEELDSVIRVLGENGQEAVGSMGDDTPFAVLSSQPRIIYDYFRQQFAQVTNPPIDPLREAHVMSLATSIGREMNVFCEAEGQAHRLSFKSPILLYSDFKQLTTMKEEHYRADTLDITFDVTKTTLEATVKELCDKAEKMVRSGTVLLVLSDRNIAKDRLPVPAPMAVGAIQTRLVDQSLRCDANIIVETASARDPHHFAVLLGFGATAIYPYLAYETLGRLVDTHAIAKDYRTVMLNYRNGINKGLYKIMSKMGISTIASYRCSKLFEAVGLHDDVVGLCFQGAVSRIGGASFEDFQQDLLNLSKRAWLARKPISQGGLLKYVHGGEYHAYNPDVVRTLQQAVQSGEYSDYQEYAKLVNERPATTLRDLLAITPGENAVNIADVEPASELFKRFDTAAMSIGALSPEAHEALAEAMNSIGGNSNSGEGGEDPARYGTNKVSRIKQVASGRFGVTPAYLVNADVIQIKVAQGAKPGEGGQLPGDKVTPYIAKLRYSVPGVTLISPPPHHDIYSIEDLAQLIFDLKQVNPKAMISVKLVSEPGVGTIATGVAKAYADLITIAGYDGGTGASPLSSVKYAGCPWELGLVETQQALVANGLRHKIRLQVDGGLKTGVDIIKAAILGAESFGFGTGPMVALGCKYLRICHLNNCATGVATQDDKLRKNHYHGLPFKVTNYFEFIARETRELMAQLGVTRLVDLIGRTDLLKELDGFTAKQQKLALSKLLETAEPHPGKALYCTENNPPFDNGLLNAQLLQQAKPFVDERQSKTFWFDIRNTDRSVGASLSGYIAQTHGDQGLAADPIKAYFNGTAGQSFGVWNAGGVELYLTGDANDYVGKGMAGGLIAIRPPVGSAFRSHEASIIGNTCLYGATGGRLYAAGRAGERFGVRNSGAITVVEGIGDNGCEYMTGGIVCILGKTGVNFGAGMTGGFAYVLDESGDFRKRVNPELVEVLSVDALAIHEEHLRGLITEHVQHTGSQRGEEILANWSTFATKFALVKPKSSDVKALLGHRSRSAAELRVQAQ	6.38 ± 0.89	4.89 ± 0.053	8.46 ± 0.56	6.254 ± 0.044	4.18 ± 0.16	4.437 ± 0.013	4.06 ± 0.1	3.92 ± 0.12	6.4 ± 0.52	5.31 ± 0.17	8.43 ± 0.51	2.72 ± 0.22
MLYVIYAQDKADSLEKRLSVRPAHLARLQLLHDEGRLLTAGPMPAVDSNDPGAAGFTGSTVIAEFESLEAAQAWADADPYVAAGVYEHVSVKPFKKVF [P0AB55]	5.05 ± 0.14	4.96 ± 0.49	9.37	4.751 ± 0.018	4.51 ± 0.13	5.1 ± 0.41	5.34 ± 1	–	7.02 ± 0.86	6	–	–
MMANIWWSLPLTLIVFFAARKLAARYKFPLLNPLLVAMVVIIPFLMLTGISYDSYFKGSEVLNDLLQPAVVALAYPLYEQLHQIRARWKSIITICFIGSVVAMVTGTSVALLMGASPEIAASILPKSVTTPIAMAVGGSIGGIPAISAVCVIFVGILGAVFGHTLLNAMRIRTKAARGLAMGTASHALGTARCAELDYQEGAFSSLALVLCGIITSLIAPFLFPIILAVMG [P0AD19]	–	–	–	–	–	–	–	5.99	–	–	–	–
MMDNDNSLNKRPTFKRALRNISMTSIFITMMLIWLLLSVTSVLTLKQYAQKNLALTAATMTYSLEAAVVFADGPAATETLAALGQQGQFSTAEVRDKQQNILASWHYTRKDPGDTFSNFISHWLFPAPIIQPIRHNGETIGEVRLTARDSSISHFIWFSLAVLTGCILLASGIAITLTRHLHNGLVEALKNITDVVHDVRSNRNFSRRVSEERIAEFHRFALDFNSLLDEMEEWQLRLQAKNAQLLRTALHDPLTGLANRAAFRSGINTLMNNSDARKTSALLFLDGDNFKYINDTWGHATGDRVLIEIAKRLAEFGGLRHKAYRLGGDEFAMVLYDVQSESEVQQICSALTQIFNLPFDLHNGHQTTMTLSIGYAMTIEHASAEKLQELADHNMYQAKHQRAEKLVR	4.053 ± 0.0067	–	–	–	–	–	–	0.877	–	1.69	–	–
MMEQSLIPQTPVLPLTAQRTVKRALTLLDRHLRETGVAFTSTQAARDWLKLKMAGLEREEFMMLYLNQQNQLIAHETLFAGSISSTEVHPREVVKRALYFNAAAVILAHNHPSGDTTPSQADKTITQRLVQALQLVDIRVPDHLIVGGRQIYSFAEHGLL	–	–	–	–	–	–	–	–	8.33	–	10.4	–
MMGKLIWLMGPSGSGKDSLLAELRLREQTQLLVAHRYITRDASAGSENHIALSEQEFFTRAGQNLLALSWHANGLYYGVGVEIDLWLHAGFDVLVNGSRAHLPQARARYQSALLPVCLQVSPEILRQRLENRGRENASEINARLARAARYTPQDCHTLNNDGSLRQSVDTLLTLIHQKEKHHACL	5.33	–	–	–	–	–	–	–	–	0.578	1.28	–
MMILSILATVVLLGALFYHRVSLFISSLILLAWTAALGVAGLWSAWVLVPLAIILVPFNFAPMRKSMISAPVFRGFRKVMPPMSRTEKEAIDAGTTWWEGDLFQGKPDWKKLHNYPQPRLTAEEQAFLDGPVEEACRMANDFQITHELADLPPELWAYLKEHRFFAMIIKKEYGGLEFSAYAQSRVLQKLSGVSGILAITVGVPNSLGPGELLQHYGTDEQKDHYLPRLARGQEIPCFALTSPEAGSDAGAIPDTGIVCMGEWQGQQVLGMRLTWNKRYITLAPIATVLGLAFKLSDPEKLLGGAEDLGITCALIPTTTPGVEIGRRHFPLNVPFQNGPTRGKDVFVPIDYIIGGPKMAGQGWRMLVECLSVGRGITLPSNSTGGVKSVALATGAYAHIRRQFKISIGKMEGIEEPLARIAGNAYVMDAAASLITYGIMLGEKPAVLSAIVKYHCTHRGQQSIIDAMDITGGKGIMLGQSNFLARAYQGAPIAITVEGANILTRSMMIFGQGAIRCHPYVLEEMEAAKNNDVNAFDKLLFKHIGHVGSNKVRSFWLGLTRGLTSSTPTGDATKRYYQHLNRLSANLALLSDVSMAVLGGSLKRRERISARLGDILSQLYLASAVLKRYDDEGRNEADLPLVHWGVQDALYQAEQAMDDLLQNFPNRVVAGLLNVVIFPTGRHYLAPSDKLDHKVAKILQVPNATRSRIGRGQYLTPSEHNPVGLLEEALVDVIAADPIHQRICKELGKNLPFTRLDELAHNALVKGLIDKDEAAILVKAEESRLRSINVDDFDPEELATKPVKLPEKVRKVEAA	6.66 ± 0.19	1.86 ± 0.12	2.9 ± 0.51	5.65 ± 0.067	2.2 ± 0.21	2.48 ± 0.52	1.82 ± 0.079	2.2 ± 0.1	3.64 ± 0.49	2.01 ± 0.24	3.65 ± 0.59	1.43 ± 0.11
MMILVTGGARSGKSRHAEALIGDSSQVLYIATSQILDDEMAARIEHHRQGRPEHWRTVERWQHLDELIHADINPNEVVLLECVTTMVTNLLFDYGGDKDPDEWDYQAMEQAINAEIQSLIAACQRCPAKVVLVTNEVGMGIVPESRLARHFRDIAGRVNQQLAAAANEVWLVVSGIGVKIK [P0AE76]	4.52	5.17	10.5	3.9	4.32	–	4.68	3.85	8.3	5.94	9.83 ± 1.8	–
MMITLRKLPLAVAVAAGVMSAQAMAVDFHGYARSGIGWTGSGGEQQCFQTTGAQSKYRLGNECETYAELKLGQEVWKEGDKSFYFDTNVAYSVAQQNDWEATDPAFREANVQGKNLIEWLPGSTIWAGKRFYQRHDVHMIDFYYWDISGPGAGLENIDVGFGKLSLAATRSSEAGGSSSFASNNIYDYTNETANDVFDVRLAQMEINPGGTLELGVDYGRANLRDNYRLVDGASKDGWLFTAEHTQSVLKGFNKFVVQYATDSMTSQGKGLSQGSGVAFDNEKFAYNINNNGHMLRILDHGAISMGDNWDMMYVGMYQDINWDNDNGTKWWTVGIRPMYKWTPIMSTVMEIGYDNVESQRTGDKNNQYKITLAQQWQAGDSIWSRPAIRVFATYAKWDEKWGYDYTGNADNNANFGKAVPADFNGGSFGRGDSDEWTFGAQMEIWW	6.61	6.85 ± 1.6	> 16	> 8	–	–	6.71 ± 0.23	> 8	> 16	7.548 ± 0.042	> 16	3.38 ± 0.6
MMKLMFASDIHGSLPATERVLELFAQSGAQWLVILGDVLNHGPRNALPEGYAPAKVAERLNEVAHKVIAVRGNCDSEVDQMLLHFPITAPWQQVLLEKQRLFLTHGHLFGPENLPALNQNDVLVYGHTHLPVAEQRGEIFHFNPGSVSIPKGGNPASYGMLDNDVLSVIALNDQSIIAQVAINP	–	5.48 ± 0.14	9.4066 ± 0.0045	4.01 ± 0.21	3.75 ± 0.28	4.04 ± 0.35	3.97 ± 0.34	4 ± 0.66	6.84 ± 0.35	5.32 ± 0.64	10.1 ± 0.38	2.7 ± 0.24
